From patent JP2023550785A
Read-outs that look alike come from different tables or passages of the source.

How the values were obtained:
[1] = biological target: SARS-CoV-2 (BetaCoV/Wuhan-Hu-1/2019) prefusion-stabilized spike (S) protein / S ectodomain trimer (SARS-CoV-2 (BetaCoV/Wuhan-Hu-1/2019)) (UniProt P0DTC2); assay: SPR (Biacore T200), S ectodomain trimer captured, Fab as analyte
[2] = biological target: SARS-CoV-2 (BetaCoV/Wuhan-Hu-1/2019) prefusion-stabilized spike (S) protein / S ectodomain trimer (SARS-CoV-2 (BetaCoV/Wuhan-Hu-1/2019)) (UniProt P0DTC2)

Chain of antibody S2P6 (antibody 420 1 1), human monoclonal antibody expressed as recombinant human IgG1 (VH): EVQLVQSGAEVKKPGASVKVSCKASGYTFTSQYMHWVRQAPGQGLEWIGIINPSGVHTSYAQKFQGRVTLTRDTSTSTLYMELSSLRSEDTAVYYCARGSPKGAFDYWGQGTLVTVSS
Chain of antibody S2P6 (antibody 420 1 1), human monoclonal antibody expressed as recombinant human IgG1 (VL): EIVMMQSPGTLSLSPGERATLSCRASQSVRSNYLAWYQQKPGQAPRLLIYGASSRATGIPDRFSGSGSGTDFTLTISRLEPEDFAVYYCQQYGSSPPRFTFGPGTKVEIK
Chain of S2P6 Fab fragment (VH): as the sequence (VH) above
Chain of S2P6 Fab fragment (VL): as the sequence (VL) above

S2P6 Fab fragment was tested. Which Kd [1] did it give?
The Kd was 7 nM.

Which Kd [2] does the source give for “antibody S2P6 (antibody 420 1 1), human monoclonal antibody expressed as recombinant human IgG1” here?
The Kd was < 0.001 nM.

What about the koff [2] of the same substance?
The koff was < 1e-07 s⁻¹.

What about the kon [2] of the same substance?
Its kon is 453000 M⁻¹ s⁻¹.
